Values quoted from earlier work as cited in US20100028328A1, “TOPICAL TREATMENT FOR DISEASES OF EYE SURFACE” (THERAKINE, LTD., priority 2006, published 2010).

B1: TNFR-I: a TNF antagonist; topical soluble tumor necrosis factor receptor type I (protein, UniProt P19438 30-211, looked up)
extracellular domain: LVPHLGDREKRDSVCPQGKYIHPQNNSICCTKCHKGTYLYNDCPGPGQDTDCRECESGSFTASENHLRHCLSCSKCRKEMGQVEISSCTVDRDTVCGCRKNQYRHYWSENLFQCFNCSLCLNGTVHLSCQEKQNTVCTCHAGFFLRENECVSCSNCKKSLECTKLCLPQIENVKGTEDSGTT
modifications: extracellular domain

How the values were obtained:
[1] = tested on: Herpetic Stromal Keratitis (HSK), Herpes simplex virus infection of the cornea; conditions: treatment of HSK
[2] = tested on: allogeneic corneal transplants; conditions: topical treatment

Molecule | influx of cells of the innate and adaptive immune system into the cornea [1] | acceptance of allogeneic corneal transplants [2] | gene expression of chemokines associated with corneal graft rejection (RANTES, macrophage inflammatory protein-1beta) [2]
IL-1 ra: receptor antagonist to IL-1 | reduce the influx of cells of the innate and adaptive immune system into the cornea | – | –
B1 | – | promoted the acceptance of allogeneic corneal transplants | inhibited gene expression of 2 chemokines
